The values below come from the RNAGym collection of RNA variant scans (doi:10.1073/pnas.2313332121).

B1: TPR t1 (parent)
chain: GACCAAUCUGCCCUCAGAGCUCGAGAACAUCUUCGGAUGCAGAGGAGGCAGGCUUCGGUGGCGCGAUAGCGCCAACGUCCUCAACCUCCAAUGCAUCCCACCACAUGAUGAUGCCUGAAGAGCCUUGGUUUUUUG

The variants in the data set derive from B1. Put plainly: polymerase ribozyme fitness, log enrichment relative to wild type (log ratio); higher = more active; in vitro selection for triplet polymerase activity. In short, it runs like this:
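Mutant libraries of both subunits of a heterodimeric triplet polymerase ribozyme were PCR-built, transcribed, and selected once in triplicate, with frozen incubation at −7 °C and capture of gel-excised extended constructs on streptavidin beads before RT-PCR. Illumina sequencing of input and output libraries was filtered to genotypes with ≥10 input reads and ≥1 read per output. Fitness is the logarithm of genotype enrichment over wild-type enrichment, using inverse-variance-weighted replicate averages. The logarithm is base 2.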
C11G C56G: the “polymerase ribozyme fitness (log ratio)” value is 0.087.

On to C34G C73A U116A A121U, for which the “polymerase ribozyme fitness (log ratio)” value is -4.42.

On to C15A A74G G113A, for which the “polymerase ribozyme fitness (log ratio)” value was -4.02.

As for C12U A16U C20U G71C C114A G127U, the “polymerase ribozyme fitness (log ratio)” value was -3.54.

In the case of C12U C72G U112C, the “polymerase ribozyme fitness (log ratio)” value was 1.25.

As for G47C C49U C62U, the “polymerase ribozyme fitness (log ratio)” value was -2.46.

As for G45U C97A U112A, the “polymerase ribozyme fitness (log ratio)” value is -5.81.

Consider G10C G19C A43G C72U U112C C123A, for which the “polymerase ribozyme fitness (log ratio)” value is -1.54.

With C62A G110U, the “polymerase ribozyme fitness (log ratio)” value is -2.92.

As to C22U C72G C82A, the “polymerase ribozyme fitness (log ratio)” value is -5.

In the case of C12A C53U U78A U81G, the “polymerase ribozyme fitness (log ratio)” value was -2.32.

As to C12U A27G G69A C88A U125G, the “polymerase ribozyme fitness (log ratio)” value was -3.8.

In the case of G69A C104U G120A U133A, the “polymerase ribozyme fitness (log ratio)” value is -0.971.

As to A27U U54C U109A G117A A118U U129G, the “polymerase ribozyme fitness (log ratio)” value is -5.85.

With C4U U14A, the “polymerase ribozyme fitness (log ratio)” value was -2.88.

Take C31G A50C U112A: the “polymerase ribozyme fitness (log ratio)” value is -6.45.

Regarding C8G G63C G117C C124A, the “polymerase ribozyme fitness (log ratio)” value is -1.86.

C12G G61U G120U: the “polymerase ribozyme fitness (log ratio)” value is 2.2.

With C34A C79G, the “polymerase ribozyme fitness (log ratio)” value was -6.59.

With C70G C114U, the “polymerase ribozyme fitness (log ratio)” value was -4.81.

Consider U7G G51C C115U, for which the “polymerase ribozyme fitness (log ratio)” value was -5.78.

On to A24U G69U, for which the “polymerase ribozyme fitness (log ratio)” value is -3.76.

For the variant G39A C56A G120U, the “polymerase ribozyme fitness (log ratio)” value was -0.286.

Turning to A5G A83U, the “polymerase ribozyme fitness (log ratio)” value was -1.18.

On to A91C A103C, for which the “polymerase ribozyme fitness (log ratio)” value was -7.08.

For the variant U32G C72U C102U G113A, the “polymerase ribozyme fitness (log ratio)” value is -7.34.

In the case of C4U C13U G19U A95G, the “polymerase ribozyme fitness (log ratio)” value is -2.99.

Regarding C13G U112G, the “polymerase ribozyme fitness (log ratio)” value is -0.767.

As for U106A G117C, the “polymerase ribozyme fitness (log ratio)” value was -1.94.

For G52A C72U C85G, the “polymerase ribozyme fitness (log ratio)” value is -2.39.

As for G57A C64G U67G U81A A111U, the “polymerase ribozyme fitness (log ratio)” value was -6.28.

Consider C73U U109C, for which the “polymerase ribozyme fitness (log ratio)” value was -3.63.

As to G17A G42U U129A, the “polymerase ribozyme fitness (log ratio)” value was -4.5.

As to C12A A46U C72G C114U, the “polymerase ribozyme fitness (log ratio)” value is -4.57.

Consider A6G U96A C102A U129A, for which the “polymerase ribozyme fitness (log ratio)” value was -5.24.

For C12A G44A C72G A100U, the “polymerase ribozyme fitness (log ratio)” value is -2.22.

G52C U59C G120U U125C: the “polymerase ribozyme fitness (log ratio)” value is -0.0154.

On to A2C C73U, for which the “polymerase ribozyme fitness (log ratio)” value was -1.65.

With G63A G127U, the “polymerase ribozyme fitness (log ratio)” value was -1.36.

For C98U A119U, the “polymerase ribozyme fitness (log ratio)” value is -1.28.

On to U14A G19C A83C C89A A111C C114G, for which the “polymerase ribozyme fitness (log ratio)” value was -5.57.

Consider C31A A111C, for which the “polymerase ribozyme fitness (log ratio)” value was -3.67.

Turning to C56A A68G, the “polymerase ribozyme fitness (log ratio)” value is -2.75.

Take A43C U131C: the “polymerase ribozyme fitness (log ratio)” value is -1.94.

On to U54C C73U A83U G113U U134G, for which the “polymerase ribozyme fitness (log ratio)” value was -2.89.

In the case of G71C G93A, the “polymerase ribozyme fitness (log ratio)” value was -1.77.

Take A26U U54G U78C C89U: the “polymerase ribozyme fitness (log ratio)” value is -5.2.

For C97U G113C, the “polymerase ribozyme fitness (log ratio)” value was -2.71.

Take A66C A84C C123U U133G: the “polymerase ribozyme fitness (log ratio)” value is -0.245.

On to G110A C123U, for which the “polymerase ribozyme fitness (log ratio)” value is -0.322.

With U14G G61U C89A C99G G113C C115U, the “polymerase ribozyme fitness (log ratio)” value was -6.86.

As for C12A G17C G48C, the “polymerase ribozyme fitness (log ratio)” value was -6.47.

Take G17U U109A: the “polymerase ribozyme fitness (log ratio)” value was -6.56.

In the case of C31G G36A G52A C56U C115G, the “polymerase ribozyme fitness (log ratio)” value is -7.46.

Regarding A18U U59A A68G A91U G120U, the “polymerase ribozyme fitness (log ratio)” value is -6.77.

As to G17U A43U G48U A74G, the “polymerase ribozyme fitness (log ratio)” value is -3.04.

As to G63C C97G, the “polymerase ribozyme fitness (log ratio)” value is -4.59.

For A108G, the “polymerase ribozyme fitness (log ratio)” value was -1.19.

Consider C49A C72A C73U C97G C123A, for which the “polymerase ribozyme fitness (log ratio)” value was -5.81.

For U9G G42U G45C U92G U129A, the “polymerase ribozyme fitness (log ratio)” value is -6.64.

Take A105U G110U: the “polymerase ribozyme fitness (log ratio)” value was -6.12.

G10U U59C A95U C102U: the “polymerase ribozyme fitness (log ratio)” value was -3.58.

C20U G42C: the “polymerase ribozyme fitness (log ratio)” value is -2.14.

On to A5C A37U G127U, for which the “polymerase ribozyme fitness (log ratio)” value is -2.11.

For G77C C89G G122U C123U, the “polymerase ribozyme fitness (log ratio)” value is -1.58.

U87A C99U G110U: the “polymerase ribozyme fitness (log ratio)” value was -5.56.

As to G60C C76U, the “polymerase ribozyme fitness (log ratio)” value was -3.93.

As for C4A G52A C53A C72U A90U U130C, the “polymerase ribozyme fitness (log ratio)” value is -3.37.

Take C49U G69U C80A: the “polymerase ribozyme fitness (log ratio)” value was -3.24.

A100U U106C: the “polymerase ribozyme fitness (log ratio)” value was -0.792.

Regarding G19A G61A C104A G107A A121G, the “polymerase ribozyme fitness (log ratio)” value was -5.44.

For C40U A50G, the “polymerase ribozyme fitness (log ratio)” value is -0.548.

In the case of G17U A105C U109A C124A, the “polymerase ribozyme fitness (log ratio)” value is -5.37.

Turning to C34U C72G, the “polymerase ribozyme fitness (log ratio)” value was -2.99.

Regarding G71A G135U, the “polymerase ribozyme fitness (log ratio)” value is -1.5.

U14C U112G G113U: the “polymerase ribozyme fitness (log ratio)” value was -5.07.

For the variant G61C U106C G135U, the “polymerase ribozyme fitness (log ratio)” value is -3.18.

As for A29C A37C C94U G120C, the “polymerase ribozyme fitness (log ratio)” value is -4.25.

In the case of C22G U38A C64U G77U G120A, the “polymerase ribozyme fitness (log ratio)” value was -3.99.

As to G39U G42C C94U U106A U112A, the “polymerase ribozyme fitness (log ratio)” value is -0.723.

For the variant C13U C64U U92C U96C, the “polymerase ribozyme fitness (log ratio)” value was -1.14.

As to A18U A37C C101A, the “polymerase ribozyme fitness (log ratio)” value is -4.02.

For the variant G60U C70U, the “polymerase ribozyme fitness (log ratio)” value is -2.43.
